Conditions in all cases: protein: recombinant; chain copies: 2; label: 5'-32P
Data set [1] has as its target Fis R71A (UniProt P0A6R3 1-98, R71A). Nature of the data set: EMSA; EMSA: 20 mM Hepes pH 7.5, 0.15 M NaCl, 5% glycerol, 0.5 mg/ml BSA, 1 mM EDTA, 1 mM DTT, 0.1 nM 32P 27 bp probe, 50 ug/ml poly dI/dC; temperature not stated. Background: A gel shift assay detects complexes by their altered migration in electrophoresis.
The target of data set [2] is T1, Fis WT (UniProt P0A6R3 1-98). As to the kind of experiment: EMSA; fold printed as 6; EMSA: 20 mM Hepes pH 7.5, 0.15 M NaCl, 5% glycerol, 0.5 mg/ml BSA, 1 mM EDTA, 1 mM DTT, 0.1 nM 32P 27 bp probe, 50 ug/ml poly dI/dC; temperature not stated.
Data set [3] concerns the target T1, Fis WT. Nature of the data set: EMSA; EMSA: 20 mM Hepes pH 7.5, 0.15 M NaCl, 5% glycerol, 0.5 mg/ml BSA, 1 mM EDTA, 1 mM DTT, 0.1 nM 32P 27 bp probe, 50 ug/ml poly dI/dC; temperature not stated.
In data set [4] the target is T1, Fis WT. Nature of the data set: EMSA; t1/2 8 min; EMSA: 20 mM Hepes pH 7.5, 0.15 M NaCl, 5% glycerol, 0.5 mg/ml BSA, 1 mM EDTA, 1 mM DTT, 0.1 nM 32P 27 bp probe, 50 ug/ml poly dI/dC; temperature not stated.
For data set [5], the target named is T1, Fis WT. As to the kind of experiment: EMSA; t1/2 4 min; EMSA: 20 mM Hepes pH 7.5, 0.15 M NaCl, 5% glycerol, 0.5 mg/ml BSA, 1 mM EDTA, 1 mM DTT, 0.1 nM 32P 27 bp probe, 50 ug/ml poly dI/dC; temperature not stated.
Data set [6] deals with T2, Fis T75A (UniProt P0A6R3 1-98, T75A). As to the kind of experiment: EMSA; EMSA: 20 mM Hepes pH 7.5, 0.15 M NaCl, 5% glycerol, 0.5 mg/ml BSA, 1 mM EDTA, 1 mM DTT, 0.1 nM 32P 27 bp probe, 50 ug/ml poly dI/dC; temperature not stated.
Data set [7] deals with T1, Fis WT. As to the kind of experiment: EMSA; t1/2 4 min; EMSA: 20 mM Hepes pH 7.5, 0.15 M NaCl, 5% glycerol, 0.5 mg/ml BSA, 1 mM EDTA, 1 mM DTT, 0.1 nM 32P 27 bp probe, 50 ug/ml poly dI/dC; temperature not stated. This is another data set of the same source.
Data set [8] concerns the target T1, Fis WT. As to the kind of experiment: EMSA; t1/2 41 min; Table 3 gives error 0.05; EMSA: 20 mM Hepes pH 7.5, 0.15 M NaCl, 5% glycerol, 0.5 mg/ml BSA, 1 mM EDTA, 1 mM DTT, 0.1 nM 32P 27 bp probe, 50 ug/ml poly dI/dC; temperature not stated.
Data set [9] addresses T2, Fis T75A. Nature of the data set: EMSA; error as printed; EMSA: 20 mM Hepes pH 7.5, 0.15 M NaCl, 5% glycerol, 0.5 mg/ml BSA, 1 mM EDTA, 1 mM DTT, 0.1 nM 32P 27 bp probe, 50 ug/ml poly dI/dC; temperature not stated.
For data set [10], the target named is Fis N73A (UniProt P0A6R3 1-98, N73A). As to the kind of experiment: EMSA; EMSA: 20 mM Hepes pH 7.5, 0.15 M NaCl, 5% glycerol, 0.5 mg/ml BSA, 1 mM EDTA, 1 mM DTT, 0.1 nM 32P 27 bp probe, 50 ug/ml poly dI/dC; temperature not stated.
Data set [11] deals with T1, Fis WT. Nature of the data set: EMSA; t1/2 <0.25 min; EMSA: 20 mM Hepes pH 7.5, 0.15 M NaCl, 5% glycerol, 0.5 mg/ml BSA, 1 mM EDTA, 1 mM DTT, 0.1 nM 32P 27 bp probe, 50 ug/ml poly dI/dC; temperature not stated.
Data set [12] addresses T1, Fis WT. Nature of the data set: X-ray crystallography; EMSA: 20 mM Hepes pH 7.5, 0.15 M NaCl, 5% glycerol, 0.5 mg/ml BSA, 1 mM EDTA, 1 mM DTT, 0.1 nM 32P 27 bp probe, 50 ug/ml poly dI/dC; temperature not stated.
Data set [13] deals with T1, Fis WT. As to the kind of experiment: EMSA; t1/2 14 min; EMSA: 20 mM Hepes pH 7.5, 0.15 M NaCl, 5% glycerol, 0.5 mg/ml BSA, 1 mM EDTA, 1 mM DTT, 0.1 nM 32P 27 bp probe, 50 ug/ml poly dI/dC; temperature not stated.
In data set [14] the target is T1, Fis WT. As to the kind of experiment: X-ray crystallography; 2.7 A; EMSA: 20 mM Hepes pH 7.5, 0.15 M NaCl, 5% glycerol, 0.5 mg/ml BSA, 1 mM EDTA, 1 mM DTT, 0.1 nM 32P 27 bp probe, 50 ug/ml poly dI/dC; temperature not stated.
Data set [15] addresses T1, Fis WT. As to the kind of experiment: EMSA; affinity as F1, lifetime increased; EMSA: 20 mM Hepes pH 7.5, 0.15 M NaCl, 5% glycerol, 0.5 mg/ml BSA, 1 mM EDTA, 1 mM DTT, 0.1 nM 32P 27 bp probe, 50 ug/ml poly dI/dC; temperature not stated.
Data set [16] deals with T1, Fis WT. As to the kind of experiment: EMSA; t1/2 22 min; EMSA: 20 mM Hepes pH 7.5, 0.15 M NaCl, 5% glycerol, 0.5 mg/ml BSA, 1 mM EDTA, 1 mM DTT, 0.1 nM 32P 27 bp probe, 50 ug/ml poly dI/dC; temperature not stated.
Data set [17] deals with T1, Fis WT. As to the kind of experiment: X-ray crystallography; 2.8 A; EMSA: 20 mM Hepes pH 7.5, 0.15 M NaCl, 5% glycerol, 0.5 mg/ml BSA, 1 mM EDTA, 1 mM DTT, 0.1 nM 32P 27 bp probe, 50 ug/ml poly dI/dC; temperature not stated.
Data set [18] deals with T1, Fis WT. As to the kind of experiment: X-ray crystallography; 2.9 A, C2; EMSA: 20 mM Hepes pH 7.5, 0.15 M NaCl, 5% glycerol, 0.5 mg/ml BSA, 1 mM EDTA, 1 mM DTT, 0.1 nM 32P 27 bp probe, 50 ug/ml poly dI/dC; temperature not stated.

T2 sequence (P0A6R3 whole entry T75A): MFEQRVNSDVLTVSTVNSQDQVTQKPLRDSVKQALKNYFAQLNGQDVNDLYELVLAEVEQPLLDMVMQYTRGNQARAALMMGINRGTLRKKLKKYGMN
Fis R71A, sequence (P0A6R3 whole entry R71A): as the sequence (P0A6R3 whole entry T75A) above, with R71A, A75T counted along it
T1 sequence (P0A6R3 whole entry): as the sequence (P0A6R3 whole entry T75A) above, with A75T counted along it
Fis N73A, sequence (P0A6R3 whole entry N73A): as the sequence (P0A6R3 whole entry T75A) above, with N73A, A75T counted along it

B1: F28 (dsDNA)
DNA 1: AAATTTGTTTGAGCGTTGAGCAAATTT
DNA 2: AAATTTGCTCAACGCTCAAACAAATTT
What is called Kd is the free concentration of one partner at which half of the binding sites on the other are occupied at equilibrium, for simple one-to-one binding. For B1, the Kd in data set [1] stood at 470 ± 100 nM.

B2: F33 (dsDNA)
DNA 1: AAAGGTGTTTGAATTTTGAGCACCTTT
DNA 2: AAAGGTGCTCAAAATTCAAACACCTTT
As to B2, in data set [2], the Kd came out at 0.6 ± 0.1 nM.

B3: F15 (dsDNA)
DNA 1: CCCTTTGTTTGAATTTTGAGCAAAGGG
DNA 2: CCCTTTGCTCAAAATTCAAACAAAGGG
Consider B3, for which, in [3], the Kd was determined as 0.4 ± 0.2 nM.

B4: INV±8G (dsDNA)
DNA 1: TTTAAGGTTTGAATTTTGAGCCTTAAA
DNA 2: TTTAAGGCTCAAAATTCAAACCTTAAA
As for B4, the Kd in data set [3] came to 250 ± 20 nM.

B5: INV-GAT (dsDNA)
DNA 1: TTTGATGTTTGAATTTTGAGCATCAAA
DNA 2: TTTGATGCTCAAAATTCAAACATCAAA
On to B5, for which the Kd in data set [3] is 2 ± 0.6 nM.

B6: F34 (dsDNA)
DNA 1: AAGCTTGTTTGAATTTTGAGCAACGTT
DNA 2: AACGTTGCTCAAAATTCAAACAAGCTT
As to B6, the Kd in data set [4] was determined as 0.2 ± 0.1 nM.

B7: INV±8T (dsDNA)
DNA 1: TTTAATGTTTGAATTTTGAGCATTAAA
DNA 2: TTTAATGCTCAAAATTCAAACATTAAA
On to B7, for which the Kd in data set [5] stood at 2.3 ± 0.7 nM.

B8: INV±9-10T (dsDNA)
DNA 1: TTTATTGTTTGAATTTTGAGCAATAAA
DNA 2: TTTATTGCTCAAAATTCAAACAATAAA
For B8, the Kd in data set [3] was 0.4 ± 0.1 nM.

B9: F27 (dsDNA)
DNA 1: AAATTTGTTTGAACTTTGAGCAAATTT
DNA 2: AAATTTGCTCAAAGTTCAAACAAATTT
Take B9: the results for the Kd in [6], in data set [3] and in data set [1] were 3.5 ± 0.9 nM, 0.2 ± 0.1 nM and 2.8 ± 0.5 nM, respectively.

B10: F16 (dsDNA)
DNA 1: GCGGTTGTTTGAATTTTGAGCAACCGC
DNA 2: GCGGTTGCTCAAAATTCAAACAACCGC
With B10, the Kd in data set [3] was 0.5 ± 0.2 nM.

B11: INV-CAT (dsDNA)
DNA 1: TTTCATGTTTGAATTTTGAGCATGAAA
DNA 2: TTTCATGCTCAAAATTCAAACATGAAA
B11: the Kd in [3] is 2.9 ± 1 nM.

B12: F14 (dsDNA)
DNA 1: GGGTTTGTTTGAATTTTGAGCAAACCC
DNA 2: GGGTTTGCTCAAAATTCAAACAAACCC
As for B12, the Kd in [3] amounted to 0.5 ± 0.1 nM.

B13: F18 (dsDNA)
DNA 1: AAATTTGTTGGAATTTTCAGCAAATTT
DNA 2: AAATTTGCTGAAAATTCCAACAAATTT
For the molecule B13, the binding signal in [7] is 10 fold weaker than F1.

B14: INV±8C (dsDNA)
DNA 1: TTTAACGTTTGAATTTTGAGCGTTAAA
DNA 2: TTTAACGCTCAAAATTCAAACGTTAAA
As to B14, the Kd in data set [3] amounted to 6 ± 2 nM.

B15: F1 (±8T) (dsDNA)
DNA 1: AAATTTGTTTGAATTTTGAGCAAATTT
DNA 2: AAATTTGCTCAAAATTCAAACAAATTT
For B15, the Kd in [8] was found to be 0.2 ± 0.07 nM; in data set [9], 0.3 ± 0.8 nM; in [10] it was 29 ± 0.2 nM; in data set [1], 0.5 ± 0.2 nM.

B16: INV (dsDNA)
DNA 1: TTTAAAGTTTGAATTTTGAGCTTTAAA
DNA 2: TTTAAAGCTCAAAATTCAAACTTTAAA
For the molecule B16, in data set [11], the Kd was determined as 33 ± 3 nM.

B17: F1±8A (dsDNA)
DNA 1: AAATTAGTTTGAATTTTGAGCTAATTT
DNA 2: AAATTAGCTCAAAATTCAAACTAATTT
For B17, in [12], the binding result is “binds”.

B18: F1±8C (dsDNA)
DNA 1: AAATTCGTTTGAATTTTGAGCGAATTT
DNA 2: AAATTCGCTCAAAATTCAAACGAATTT
With B18, the equilibrium dissociation constant (Kd) in [13] came to 0.7 ± 0.2 nM.

B19: F31 (dsDNA)
DNA 1: AAATTTGTAGGAATTTTCTGCAAATTT
DNA 2: AAATTTGCAGAAAATTCCTACAAATTT
Take B19: the binding result in data set [14] is “binds”.

B20: F1±8U (dsDNA)
DNA 1: AAATTUGTTTGAATTTTGAGCAAATTT
DNA 2: AAATTUGCTCAAAATTCAAACAAATTT
modifications: deoxyuridine for T at ±8 in DNA
B20: the binding result in data set [15] is on record as “binds”.

B21: F1±8G (dsDNA)
DNA 1: AAATTGGTTTGAATTTTGAGCCAATTT
DNA 2: AAATTGGCTCAAAATTCAAACCAATTT
For the molecule B21, the binding result in data set [12] was “binds”. Moreover, the dissociation constant (Kd) in [6] came out at 48 ± 5 nM; in data set [1], 450 ± 20 nM.

B22: F1±9A (dsDNA)
DNA 1: AAATATGTTTGAATTTTGAGCATATTT
DNA 2: AAATATGCTCAAAATTCAAACATATTT
For the molecule B22, the Kd in data set [16] is 0.5 ± 0.2 nM.

B23: F32 (dsDNA)
DNA 1: AAATTTGGAGGAATTTTCTCCAAATTT
DNA 2: AAATTTGGAGAAAATTCCTCCAAATTT
Turning to B23, the values for the equilibrium dissociation constant (Kd) in [6] and in data set [1] were 76 ± 10 nM and 73 ± 11 nM, respectively. In addition, in data set [17], the binding result is on record as “binds”.

B24: F35 (dsDNA)
DNA 1: AAATTAGTTTGAATCTCGAGCTAATTT
DNA 2: AAATTAGCTCGAGATTCAAACTAATTT
Consider B24, for which the binding result in data set [18] is “binds”.

For the origin of these results see PMC4784862, “DNA Sequence Determinants Controlling Affinity, Stability and Shape of DNA Complexes Bound by the Nucleoid Protein Fis”.
